Numbered stars: 1 amine (or outer) side, 2 acyl side, 3 side chain; on linkers, the order of the positions; unused ones are H or OH. Bridge positions count the residues as written; N and C are the ends. Square brackets hold non-standard residues; d marks the D form. Ends that are not written are not given here. * marks the point of attachment. IDA = iminodiacetic acid, O=C(CN(CC(=O)[*:3])[*:1])[*:2]; Palmitoyl = CCCCCCCCCCCCCCCC(=O)*; β3hF = N[C@H](CC(=O)O)Cc1ccccc1; β3hP = O=C(O)C[C@@H]1CCCN1; Isovaleryl = CC(C)CC(=O)*; βAla = NCCC(=O)O; Sar = CNCC(=O)O
Legend:
Assay in all cases: cell-based or functional assay
[1] = target: T1, human ferroportin (SLC40A1) fused in frame with GFP, stably expressed on HEK293 cells (human, UniProt Q9NP59 1-571)
T1 sequence (looked up): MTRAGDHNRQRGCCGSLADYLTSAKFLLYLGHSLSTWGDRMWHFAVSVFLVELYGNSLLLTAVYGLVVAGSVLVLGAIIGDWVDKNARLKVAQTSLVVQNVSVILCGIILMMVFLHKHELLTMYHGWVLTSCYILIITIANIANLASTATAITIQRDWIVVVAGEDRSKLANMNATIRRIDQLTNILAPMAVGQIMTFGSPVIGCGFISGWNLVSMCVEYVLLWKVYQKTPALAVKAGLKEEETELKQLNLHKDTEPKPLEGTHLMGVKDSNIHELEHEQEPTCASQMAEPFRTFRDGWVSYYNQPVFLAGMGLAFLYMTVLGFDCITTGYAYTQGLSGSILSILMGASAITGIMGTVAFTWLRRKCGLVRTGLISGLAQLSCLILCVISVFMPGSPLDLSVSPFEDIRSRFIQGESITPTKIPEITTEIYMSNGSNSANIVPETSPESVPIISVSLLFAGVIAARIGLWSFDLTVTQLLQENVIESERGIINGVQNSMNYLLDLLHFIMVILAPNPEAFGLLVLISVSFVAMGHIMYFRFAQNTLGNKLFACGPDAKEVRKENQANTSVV

[2] = target: T1, human ferroportin (SLC40A1) fused in …; remark: listed apart in the source
[3] = target: T2, human ferroportin (SLC40A1) fused in frame with GFP, stably expressed in HEK293 cells (human, UniProt Q9NP59 1-571)
T2 sequence (looked up): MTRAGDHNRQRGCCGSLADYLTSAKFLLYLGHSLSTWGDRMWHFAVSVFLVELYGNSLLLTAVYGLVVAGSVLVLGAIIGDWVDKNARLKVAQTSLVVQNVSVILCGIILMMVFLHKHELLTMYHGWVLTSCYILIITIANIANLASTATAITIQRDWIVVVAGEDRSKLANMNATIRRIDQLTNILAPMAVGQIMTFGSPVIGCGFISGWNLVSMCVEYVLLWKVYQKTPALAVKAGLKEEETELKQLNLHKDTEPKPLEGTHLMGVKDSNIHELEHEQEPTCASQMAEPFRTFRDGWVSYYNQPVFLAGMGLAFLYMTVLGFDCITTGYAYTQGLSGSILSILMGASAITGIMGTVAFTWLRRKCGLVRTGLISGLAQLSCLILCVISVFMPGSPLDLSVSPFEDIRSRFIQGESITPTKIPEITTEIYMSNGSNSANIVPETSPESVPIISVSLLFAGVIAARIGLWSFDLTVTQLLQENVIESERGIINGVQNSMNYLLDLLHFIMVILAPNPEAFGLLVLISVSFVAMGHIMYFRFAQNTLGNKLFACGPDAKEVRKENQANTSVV

H-DTHKPCIIF-NH2 [Hy-DTHKPCIIF-NH2]
percent at the stated concentration, ferroportin internalization assay [1]: 45 % at 10 uM

H-DTHFPCILY-NH2 [Hy-DTHFPCILY-NH2]
percent at the stated concentration, ferroportin internalization assay [1]: 85 % at 1 uM

Isovaleryl-DTEFPCIKFEPRSKEWVCK-NH2 (disulfide 6-18 (inferred)) [Isovaleric acid-DTEFPCIKFEPRSKEWVCK-NH2]
Ferroportin internalization assay EC50 [1]: > 1000 nM

H-DTHFPCIIT-NH2 [Hy-DTHFPCIIT-NH2]
percent at the stated concentration, ferroportin internalization assay [1]: 23 % at 1 uM

H-DTHFPCAIF-NH2 [Hy-DTHFPCAIF-NH2]
EC50 (nM), ferroportin internalization/degradation assay [2]: > 1000 nM

DTHFPCIKFKPRSKGWVCK (IVA (isovaleric acid) on the side chain of Lys 10; C-terminal amide) [Hy-DTHFPCIKF-K(IVA)-PRSKGWVCK-NH2]
Potency EC50 [3]: > 500 nM

H-DTHFGCIIFGPRSKGWVCK-NH2 (disulfide 6-18 (inferred)) [Hy-DTHFGCIIFGPRSKGWVCK-NH2]
Potency EC50 (nM) [3]: > 1000 nM

H-DPHFPCIIF-NH2 [Hy-DPHFPCIIF-NH2]
percent at the stated concentration, ferroportin internalization assay [1]: 64 % at 10 uM

H-DTHFPCIDFGPRSKGWVCK-NH2 (disulfide 6-18 (inferred)) [Hy-DTHFPCIDFGPRSKGWVCK-NH2]
Ferroportin internalization assay EC50 [1]: > 1000 nM

DTHFPCIIFXPHSKGWVC (N-terminal isovaleric acid; Sarc at 10; N-MeTrp at 16; C-terminal amide) [Isovaleric acid-DTHFPCIIF-[Sarc]-PHSKG[N-MeTrp]-VC-NH2]
Ferroportin internalization assay EC50 [1]: 9 nM

DTHFPCIKFKPRSKGWVCK (N-terminal isovaleric acid; Palm on the side chain of Lys 10; C-terminal amide) [Isovaleric acid-DTHFPCIKF-K(Palm)-PRSKGWVCK-NH2]
Potency EC50 [3]: 9 nM

H-DTHFKCIIFGPRSKGWVCK-NH2 (disulfide 6-18 (inferred)) [Hy-DTHFKCIIFGPRSKGWVCK-NH2]
Potency EC50 (nM) [3]: > 1000 nM

Isovaleryl-DTHFPCIKFGPRSK(Palmitoyl)GWVCK-NH2 (disulfide 6-18 (inferred)) [Isovaleric acid-DTHFPCIKFGPRS-K(Palm)-GWVCK-NH2]
Potency EC50 [3]: 1 nM

H-DTHFPCRIF-NH2 [Hy-DTHFPCRIF-NH2]
percent at the stated concentration, ferroportin internalization/degradation assay [2]: 31 % at 10 uM

Isovaleryl-HFPCIIFGPRSKGWVCK-NH2 (disulfide 4-16 (inferred)) [Isovaleric acid-HFPCIIFGPRSKGWVCK-NH2]
Potency EC50 (nM) [3]: > 10000 nM

H-DTHFPRRFGPRSKGWVC-NH2 [Hy-DTHFPRRFGPRSKGWVC-NH2]
EC50 (nM), ferroportin internalization/degradation assay [2]: > 1000 nM

Isovaleryl-DTHFGCIKFEPRSKEWVCK-NH2 (not fully specified (bridges); cysteine pairing not given here) [Isovaleric acid-DTHFGCIKFEPRSKEWVCK-NH2]
Ferroportin internalization assay EC50 [1]: > 1000 nM

Isovaleryl-DTHF[βAla]CIIFGPRSKGWVCK-NH2 (not fully specified (bridges); cysteine pairing not given here) [Isovaleric acid-DTHF-[β-Ala]-CIIFGPRSKGWVCK-NH2]
Potency EC50 [3]: 264 nM

H-DTHFPCIIY-NH2 [Hy-DTHFPCIIY-NH2]
percent at the stated concentration, ferroportin internalization assay [1]: 75 % at 10 uM

H-DTHF[βAla]CIIFGPRSKGWVCK-NH2 (disulfide 6-18 (inferred)) [Hy-DTHF-[β-Ala]-CIIFGPRSKGWVCK-NH2]
Potency EC50 (nM) [3]: > 1000 nM

Isovaleryl-DTHFPCIKFGPK(Palmitoyl)SKGWVCK-NH2 (not fully specified (bridges); cysteine pairing not given here) [Isovaleric acid-DTHFPCIKFGP-K(Palm)-SKGWVCK-NH2]
Potency EC50 [3]: 2 nM

B1: Hy-DTHFPCIIFGPRSRGHVCK-NH2 (peptide)
peptide: H-DTHFPCIIFGPRSRGHVCK-NH2
modifications: not fully specified (bridges); printed as Hy-DTHFPCIIFGPRSRGHVCK-NH2; cysteine pairing not given here
Ferroportin internalization assay EC50 [1]: > 1000 nM

[IDA]THF[β3hP]CRR[β3hF]GPRSKGWVC-NH2 (disulfide 6-18 (inferred)) [[IDA]-THF-[bhPro]-CRR-[bhPhe]GPRSKGWVC-NH2]
EC50 (nM), ferroportin internalization/degradation assay [2]: > 1000 nM

H-DTHFPCRF-NH2 [Hy-DTHFPCRF-NH2]
percent at the stated concentration, ferroportin internalization/degradation assay [2]: 31 % at 10 uM

H-DTHFPCIIFAC-NH2 (disulfide 6-11 (inferred)) [Hy-DTHFPCIIFAC-NH2]
Ferroportin internalization assay EC50 [1]: > 1000 nM

H-HFPCIIFGPRSKGWVCK-NH2 (disulfide 4-16 (inferred)) [Hy-HFPCIIFGPRSKGWVCK-NH2]
Potency EC50 (nM) [3]: > 10000 nM

DTHFPCIIFXPRSKGWVC (N-terminal isovaleric acid; Sarc at 10; N-MeTrp at 16; C-terminal amide) [Isovaleric acid-DTHFPCIIF-[Sarc]-PRSKG[N-MeTrp]-VC-NH2]
Ferroportin internalization assay EC50 [1]: 10 nM

H-DTHFPCVIF-NH2 [Hy-DTHFPCVIF-NH2]
percent at the stated concentration, ferroportin internalization/degradation assay [2]: 81 % at 10 uM

H-DTHFVCIIF-NH2 [Hy-DTHFVCIIF-NH2]
percent at the stated concentration, ferroportin internalization assay [1]: 50 % at 10 uM

H-DTHF[Sar]CIIFGPRSKGWVCK-NH2 (disulfide 6-18 (inferred)) [Hy-DTHF-[Sarc]-CIIFGPRSKGWVCK-NH2]
Potency EC50 (nM) [3]: > 1000 nM

H-DTHFRCIIFGPRSKGWVCK-NH2 (disulfide 6-18 (inferred)) [Hy-DTHFRCIIFGPRSKGWVCK-NH2]
Potency EC50 (nM) [3]: > 1000 nM

Isovaleryl-DTHFECIIFGPRSKGWVCK-NH2 (not fully specified (bridges); cysteine pairing not given here) [Isovaleric acid-DTHFECIIFGPRSKGWVCK-NH2]
Ferroportin internalization assay EC50 [1]: > 1000 nM

H-DTHFPCRRF-NH2 [Hy-DTHFPCRRF-NH2]
EC50 (nM), ferroportin internalization/degradation assay [2]: > 10000 nM

H-ATHFPCIIF-NH2 [Hy-ATHFPCIIF-NH2]
Ferroportin internalization assay EC50 [1]: > 1000 nM

H-DTHFPCLF-NH2 [Hy-DTHFPCLF-NH2]
percent at the stated concentration, ferroportin internalization/degradation assay [2]: 39 % at 1 uM

H-DTHFPCIK(Isovaleryl)FGPRSKGWVCK-NH2 (disulfide 6-18 (inferred)) [Hy-DTHFPCI-K(IVA)-FGPRSKGWVCK-NH2]
Potency EC50 [3]: > 500 nM

H-DTHFPCINFGPRSKGWVCK-NH2 (disulfide 6-18 (inferred)) [Hy-DTHFPCINFGPRSKGWVCK-NH2]
Ferroportin internalization assay EC50 [1]: > 1000 nM

H-DTHFPCIIFAA-NH2 [Hy-DTHFPCIIFAA-NH2]
percent at the stated concentration, ferroportin internalization assay [1]: 59 % at 1 uM

H-DTHFPCIEY-NH2 [Hy-DTHFPCIEY-NH2]
percent at the stated concentration, ferroportin internalization assay [1]: 8 % at 1 uM

H-DTHFPCIFGPRSKGWVC-NH2 (disulfide 6-17 (inferred)) [Hy-DTHFPCIFGPRSKGWVC-NH2]
EC50 (nM), ferroportin internalization/degradation assay [2]: > 1000 nM

H-DTHFPCKIF-NH2 [Hy-DTHFPCKIF-NH2]
percent at the stated concentration, ferroportin internalization/degradation assay [2]: 9 % at 10 uM

H-ADHFPCIIF-NH2 [Hy-ADHFPCIIF-NH2]
Ferroportin internalization assay EC50 [1]: > 1000 nM

B2: Hy-DTHFPCIIFGPRSKGWNCK-NH2 (peptide)
peptide: H-DTHFPCIIFGPRSKGWNCK-NH2
modifications: not fully specified (bridges); printed as Hy-DTHFPCIIFGPRSKGWNCK-NH2; cysteine pairing not given here
Ferroportin internalization assay EC50 [1]: > 1000 nM

From patent publication US20170313754A1 (PROTAGONIST THERAPEUTICS, published 2017)
